Assay [1] has as its target T1, human β NGF (human, UniProt P01138 122-241, biotinylated in the TrkA inhibition ELISA (sites not given)). Kind of assay: TrkA inhibition ELISA; biotin-hNGF bound to rat TrkA/Fc; supernatant 1-fold. On the procedure: (§1) The plates were washed three times with PBS/Tween. The plates were blocked with 200 μl/well of 2% milk in PBS for 1 hour at room temperature. The plates were washed three times as above. Rat TrkA/Fc chimera (R&D Systems, catalog #1056-TK) was added at 1 μg/ml (50 μl/well) in PBS/0.1% BSA and then incubated for 1 hour at room temperature. Biotinylated human NGF was titered and pre-incubated with anti-NGF antibody supernatants diluted 1-fold, 5-fold, and 25-fold, or purified anti-NGF mAbs diluted to 0.08, 0.4, 2, or 10 μg/ml for 1 hour at room temperature on a plate shaker. The negative control was unrelated conditioned supernatant. The positive control was sera from a mouse immunized with NGF. The plates were washed and then 50 μl of each biotinylated NGF/Ab mix was added to the appropriate wells. The plates were incubated for 1 hour at room temperature. The plates were washed. […] The plates were incubated for 30 min at room temperature. The plates were washed. 50 μl of TMB (Invitrogen, cat #00-2023) was added and the reaction was stopped using 2N H₂SO₄ (VWR, cat # BDH3500-1). The absorbance at 450 nm was read on a Spectromax 2E plate reader (Molecular Devices), and the absorbance readings are shown in Table 5 The numerical value indicates binding of biotinylated human β NGF to rat TrkA/Fc chimera.

Assay [2] deals with T1, human β NGF. Briefly: TrkA inhibition ELISA; biotin-hNGF bound to rat TrkA/Fc; supernatant 25-fold. The method, then:
as §1

For assay [3], the target named is T1, human β NGF. Briefly: TrkA inhibition ELISA; biotin-hNGF bound to rat TrkA/Fc; supernatant 5-fold. On the procedure: as §1
The target of assay [4] is T2, recombinant canine β NGF (canine, UniProt Q29074 110-229 (pig entry)).
T2 construct: also called canine NGF
T2 chain: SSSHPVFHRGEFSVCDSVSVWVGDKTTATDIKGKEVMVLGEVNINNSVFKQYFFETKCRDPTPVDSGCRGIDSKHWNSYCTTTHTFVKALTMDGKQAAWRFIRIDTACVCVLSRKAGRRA
Kind of assay: SPR (Biacore T100), antibody captured on goat anti-canine IgG, canine NGF injected; Expt 2. The method, then: (§2) Purified mouse/canine chimeric antibodies and caninized antibodies were analyzed for affinity to canine NGF using a Biacore T100 instrument. Goat anti Canine IgG (Southern Biotech) was immobilized at 5000-10000 RU on a CM5 chip using an amine coupling procedure according to the manufacturer's instructions (Biacore). […] The association rate was monitored for 5 min and the dissociation rate was monitored for 10-20 min. The chip surface was regenerated using 50-75 ul 10 mM glycine pH 1.5 at a flow rate of 50-100 ul/min. Data was analyzed using Biaevaluation T100 software version 2.0.2, software, GE Healthcare Life Sciences (Piscataway, N.J.). Overall affinity parameters established for mouse/canine chimeric antibodies is summarized in Table 22 and for caninized antibodies in Table 23. […] The overall KDs of the mouse/canine anti-NGF mAbs range from about 1300 pM to 1.6 pM. […] The overall KDs of the caninized anti-NGF mAbs range from about 42 pM to 1.2 pM.

For assay [5], the target named is T2, recombinant canine β NGF. Kind of assay: SPR (Biacore T100), antibody captured on goat anti-canine IgG, canine NGF injected; Expt 1. The method, then: as §2
Assay [6] addresses T2, recombinant canine β NGF. Kind of assay: SPR (Biacore T100), antibody captured on goat anti-canine IgG, canine NGF injected; Average. On the procedure: as §2
Assay [7] deals with T2, recombinant canine β NGF. Briefly: cell-based or functional assay.

Values joined by “and” are separate entries in the source; they are usually repeats but may differ in a detail not shown here. Equal values may be shown once.

T1 sequence (P01138 122-241 limits assumed): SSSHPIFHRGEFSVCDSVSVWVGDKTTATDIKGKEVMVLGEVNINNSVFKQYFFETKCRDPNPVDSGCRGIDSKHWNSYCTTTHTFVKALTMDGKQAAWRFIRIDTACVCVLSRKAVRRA

With “unrelated conditioned supernatant (negative control)”, the absorbance at 450 nm was 0.465 OD450 and 0.372 OD450 and 0.386 OD450 with human β NGF [1]; 0.462 OD450 and 0.318 OD450 and 0.386 OD450 in the assay with human β NGF [2]; 0.456 OD450 and 0.336 OD450 and 0.388 OD450 in the assay with human β NGF [3].

B1: 23F1 hybridoma supernatant (antibody, mouse IgG1, V domains shown)
VH: EVQLQQSGAELVKPGASVKLSCTASGFNIKDTYIYWVKQRPEQGLEWIGRIDPANGNTIYASKFQGKATITADTSSNTAYMQLSSLTSGDTAVYYCAGYGYYAYWGQGTTLTVSS
VL: DVVLTQTPLSLPVNIGDQASISCKSTKSLLNGDGFTYLDWYLQKPGQSPQLLIYLVSNRFSGVPDRFSGSGSGTDFTLKISRVEAEDLGVYYCFESNYLFTFGSGTKLEMKR
notes: Tested as supernatant of the hybridoma before subcloning; mouse IgG1 kappa; also called ML129-23F1.4G3
As to B1, the “absorbance at 450 nm” value came to 0.108 OD450 with human β NGF [1], 0.276 OD450 with human β NGF [2] and 0.14 OD450 in the assay with human β NGF [3].

B2: 21D4 hybridoma supernatant (antibody, mouse IgG1, V domains shown)
VH: EVQLQQSGAELVKPGASVKLSCTASGFNIKDTYIYWVKQRPEQGLEWIGRIDPANGNTIYASKFQGKASITADTSSNTAYMQLSSLTSGDTAVYYCAGYGYYAYWGQGTTLTVSS
VL: DVVLTQTPLSLPVNIGDQASISCKSTKSLLNGDGFTYLDWYLQKPGQSPQLLIYLVSNRFSGVPDRFSGSGSGTDFTLKISRVEAEDLGVYYCFESNYLFTFGSGTKLEMKR
notes: Tested as supernatant of the hybridoma before subcloning; mouse IgG1 kappa; also called ML129-21D4.4A11
Take B2: the “absorbance at 450 nm” value with human β NGF [1] is 0.133 OD450; in the assay with human β NGF [2] it was 0.404 OD450; with human β NGF [3], 0.242 OD450.

B3: 3F7 hybridoma supernatant (antibody, mouse IgG1, V domains shown)
VH: QVQLKESGPGLVAPSQSLSITCTVSGFSLTGYNINWVRQPPGKGLEWLGMIWGYGDTDYNSALKSRLSISKDNSKSQVFLKMNSLQTDDTARYYCARDHYGGNDWYFDVWGTGTTVTVSS
VL: DIQMTQTTSSLSASLGDRVTITCRASQDITNYLNWYQQKPDGTVKLLIYYTSRLHSGVPSRFSGSGSGTDYSLTISNLDQEDIATYFCQQGKTLPRTFGGGTKLEIKR
notes: Tested as supernatant of the hybridoma before subcloning; mouse IgG1 kappa; also called ML130-3F7.4A8
With B3, the “absorbance at 450 nm” value with human β NGF [1] came out at 0.056 OD450; with human β NGF [2] it was 0.149 OD450; in the assay with human β NGF [3], 0.083 OD450.

B4: 82.4 Canine IgG1/k (antibody, V domains shown)
VH: EVQLQESGPGLVKPSQTLSLTCTVSGGSVTGYNINWIRQRPDRGLEWMGMIWGYGDTDYNSALKSRISITKDNTKSQLFLQLTSTTTEDTAVYYCARDHYGGNDWYFDVWGQGTLVTVSS
VL: DIQMTQTPLSLSASPGESASISCRASQDITNYLNWYRQKPGQSPKLLIYYTSRLHSGVPSRFSGSGSGTDYTLRISRVEDEDAGLYFCQQGKTLPRTFGQGTKLEIKR
notes: The variable/constant junction was not checked; also called PR-1313521; PR-13113521
As for B4, the Kd turned out to be 0.0015 nM in the assay with recombinant canine β NGF [4], 0.0012 nM with recombinant canine β NGF [5] and 0.0014 nM in the assay with recombinant canine β NGF [6]. Further, the koff with recombinant canine β NGF [4] was determined as 1.2e-05 s⁻¹; with recombinant canine β NGF [5] it was 1.1e-05 s⁻¹; with recombinant canine β NGF [6], 1.2e-05 s⁻¹. Further, the kon with recombinant canine β NGF [4] is 7.7e+06 M⁻¹ s⁻¹; in the assay with recombinant canine β NGF [5] it was 8.6e+06 M⁻¹ s⁻¹; with recombinant canine β NGF [6], 8.2e+06 M⁻¹ s⁻¹. Also, in the assay with recombinant canine β NGF [7], the “IC50, canine NGF-induced TF-1 cell proliferation (70 pM canine NGF)” value was 16 pM.

B5: 20B10 hybridoma supernatant (antibody, mouse IgG2b, V domains shown)
VH: EVHLVESGGGLVKPGGFLILSCAASGFTFSDYYMFWIRQTPGKRLEWVATISDGGSYTYYTDNVKGRFTISRDNVKNNLYLQMSHLKSADTAMYYCARDWSDSEGFAYWGQGTLVTVSA
VL: DVLMTQTPLSLPVSLGDQASISCRSSQSIVQSNGNTYLEWYLQKPGQSPKLLIYKVSNRFSGVPDRFSGSGSGTDFTLKISRVEAEDLGVYYCFQGSHVPFTFGSGTKLEIKR
notes: Tested as supernatant of the hybridoma before subcloning; mouse IgG2b kappa; also called ML129-20B10.3F4
B5: the “absorbance at 450 nm” value with human β NGF [1] is 0.166 OD450; in the assay with human β NGF [2], 0.289 OD450; in the assay with human β NGF [3], 0.2 OD450.

B6: 14A9 hybridoma supernatant (antibody, mouse IgG1, V domains shown)
VH: EVQLVESGGGAVKPGGSLTLSCAASGFTFSNHYMYWVRQTPEKRLEWVASISDGGAYTFYPDTVKGRFTISRDNVNNNLYLQMRHLKSEDTAMYYCTREESANNGFAFWGQGTLVTVSA
VL: DVLMTQTPLSLPVSLGDQASISCRSSQSILHSNGNTYLEWYLQKPGQSPNLLIYRVSNRFSGVPDRFSGSGSGTDFTLKISRVEAEDLGVYYCFQGAHVPFTFGSGTKLEIKR
notes: Tested as supernatant of the hybridoma before subcloning; mouse IgG1 kappa; also called ML130-14A9.5B12
In the case of B6, the “absorbance at 450 nm” value is 0.121 OD450 with human β NGF [1], 0.376 OD450 with human β NGF [2] and 0.208 OD450 with human β NGF [3].

B7: 73.2 Canine IgG1/k (antibody, V domains shown)
VH: QVQLVQSAAEVKKPGASVKVSCKASGYTFTNYWMHWVQQAPGAGLEWIGRIDPYGGGTKHNEKFKRRATVTADKSTSTAYMELSNLRTEDTAVYYCTRSGYDYYFDVWGQGTLVTVSS
VL: DIQMTQTPLSLSASPGESASITCRASENIYSFLAWHRQKPGQSPQLLVYNANTLAEGVPSRFSGSGSGTQFTLRISRVEDEDAGLYYCQHHFGTPFTFGQGTKLEIKR
notes: The variable/constant junction was not checked; also called PR-1313520; PR-13113520
As to B7, in the assay with recombinant canine β NGF [4], the Kd is 0.042 nM, the koff was found to be 0.00029 s⁻¹ and the kon stood at 6.9e+06 M⁻¹ s⁻¹. For the same molecule, in the assay with recombinant canine β NGF [5], the Kd was determined as 0.044 nM, the koff was determined as 0.00028 s⁻¹ and the kon turned out to be 6.3e+06 M⁻¹ s⁻¹. Further, in the assay with recombinant canine β NGF [6], the Kd came out at 0.043 nM, the koff amounted to 0.00029 s⁻¹ and the kon was determined as 6.6e+06 M⁻¹ s⁻¹. Besides, the “IC50, canine NGF-induced TF-1 cell proliferation (70 pM canine NGF)” value in the assay with recombinant canine β NGF [7] is 0.422 nM.

The record behind these values is patent US20180362629A1 (ZOETIS BELGIUM S A, published 2018).
